This is an account of results in article PMC10387068.

Experiment [1] has as its target DEP-Venus (isolated DEP domain of human DVL2 tagged with mVenus) (UniProt O14641). As to the kind of experiment: direct BRET titration. To be noted: HEK293A cells, constant receptor-Nluc plasmid, increasing DEP-Venus plasmid, read off a plot; for other: BRETmax: parent: est. 0.23; for other: log BRET50: parent: est. 2.6. (In general: Bioluminescence resonance energy transfer reports proximity on the nanometre scale.)

Experiment [2] has as its target heterotrimeric Gq 4A (Gαq 4A with Venus(1-155)-β1 and Venus(156-239)-γ2), P50148;P62873;P59768. The experiment can be described thus: BRET assay (receptor-Nluc and Venus-tagged βγ subunits). As to conditions: values normalized to cells transfected with the same FZD5-Nluc construct but no Gq 4A; parent: est. 111; read off a plot.

With “FZD5-Nluc (wild-type human Frizzled-5, C-terminally tagged with Nanoluciferase) (from UniProt Q13467) C2×50A”, in experiment [1], the other: BRETmax came out at 0.12 and the other: log BRET50 stood at 2.8. Moreover, in experiment [2], the response is 101 % BRET.

“FZD5-Nluc (wild-type human Frizzled-5, C-terminally tagged with Nanoluciferase) (from UniProt Q13467) F3×29A”: in experiment [1], the other: BRETmax came to 0.19 and the other: log BRET50 was found to be 2.5. Moreover, in experiment [2], the response came to 108 % BRET.

Consider “FZD5-Nluc (wild-type human Frizzled-5, C-terminally tagged with Nanoluciferase) (from UniProt Q13467) F4×45A”, for which, in experiment [1], the other: BRETmax stood at 0.14 and the other: log BRET50 turned out to be 3.1. In addition, the response in experiment [2] amounted to 102 % BRET.

“FZD5-Nluc (wild-type human Frizzled-5, C-terminally tagged with Nanoluciferase) (from UniProt Q13467) G5×58A”: in experiment [1], the other: BRETmax came out at 0.21 and the other: log BRET50 amounted to 2.5. Besides, in experiment [2], the response was determined as 106 % BRET.

Take “FZD5-Nluc (wild-type human Frizzled-5, C-terminally tagged with Nanoluciferase) (from UniProt Q13467) G5×65A”: in experiment [1], the other: BRETmax is 0.25 and the other: log BRET50 is 2.4. Also, in experiment [2], the response turned out to be 115 % BRET.

With “FZD5-Nluc (wild-type human Frizzled-5, C-terminally tagged with Nanoluciferase) (from UniProt Q13467) G6×34A”, in experiment [1], the other: BRETmax is 0.23 and the other: log BRET50 is 2.4. Further, the response in experiment [2] is 108 % BRET.

“FZD5-Nluc (wild-type human Frizzled-5, C-terminally tagged with Nanoluciferase) (from UniProt Q13467) L3×52A”: in experiment [1], the other: BRETmax is 0.18 and the other: log BRET50 was found to be 2.8. Further, the response in experiment [2] was found to be 103 % BRET.

As to “FZD5-Nluc (wild-type human Frizzled-5, C-terminally tagged with Nanoluciferase) (from UniProt Q13467) L5×48A”, in experiment [1], the other: BRETmax was 0.16 and the other: log BRET50 came to 2.7. Also, in experiment [2], the response turned out to be 102 % BRET.

Regarding “FZD5-Nluc (wild-type human Frizzled-5, C-terminally tagged with Nanoluciferase) (from UniProt Q13467) L5×62A”, in experiment [1], the other: BRETmax was 0.24 and the other: log BRET50 stood at 2.4. Further, the response in experiment [2] turned out to be 113 % BRET.

Take “FZD5-Nluc (wild-type human Frizzled-5, C-terminally tagged with Nanoluciferase) (from UniProt Q13467) L6×52A”: in experiment [1], the other: BRETmax came to 0.22 and the other: log BRET50 was found to be 2.7. In addition, the response in experiment [2] is 109 % BRET.

Consider “FZD5-Nluc (wild-type human Frizzled-5, C-terminally tagged with Nanoluciferase) (from UniProt Q13467) M3×37A”, for which, in experiment [1], the other: BRETmax stood at 0.16 and the other: log BRET50 is 3. Besides, in experiment [2], the response amounted to 103 % BRET.

For the substance “FZD5-Nluc (wild-type human Frizzled-5, C-terminally tagged with Nanoluciferase) (from UniProt Q13467) M6×30A”, in experiment [1], the other: BRETmax is 0.21 and the other: log BRET50 was found to be 3.2. Besides, the response in experiment [2] was determined as 111 % BRET.

As to “FZD5-Nluc (wild-type human Frizzled-5, C-terminally tagged with Nanoluciferase) (from UniProt Q13467) M7×44A”, in experiment [1], the other: BRETmax amounted to 0.22 and the other: log BRET50 is 2.2. The response in experiment [2] amounted to 107 % BRET.

For “FZD5-Nluc (wild-type human Frizzled-5, C-terminally tagged with Nanoluciferase) (from UniProt Q13467) R6×32A”, in experiment [1], the other: BRETmax was determined as 0.15 and the other: log BRET50 was found to be 4.1. For the same substance, the response in experiment [2] is 106 % BRET.

Consider “FZD5-Nluc (wild-type human Frizzled-5, C-terminally tagged with Nanoluciferase) (from UniProt Q13467) T1×50A”, for which, in experiment [1], the other: BRETmax stood at 0.22 and the other: log BRET50 was 3.2. Also, in experiment [2], the response amounted to 111 % BRET.

For the substance “FZD5-Nluc (wild-type human Frizzled-5, C-terminally tagged with Nanoluciferase) (from UniProt Q13467) T1×53A”, in experiment [1], the other: BRETmax was found to be 0.19 and the other: log BRET50 was determined as 3.1. Moreover, the response in experiment [2] turned out to be 106 % BRET.

As to “FZD5-Nluc (wild-type human Frizzled-5, C-terminally tagged with Nanoluciferase) (from UniProt Q13467) V3×44A”, in experiment [1], the other: BRETmax worked out at 0.2 and the other: log BRET50 was 2.5. Moreover, in experiment [2], the response amounted to 107 % BRET.

Consider “FZD5-Nluc (wild-type human Frizzled-5, C-terminally tagged with Nanoluciferase) (from UniProt Q13467) V45×52A”, for which, in experiment [1], the other: BRETmax was determined as 0.19 and the other: log BRET50 was found to be 2.5. Also, the response in experiment [2] amounted to 105 % BRET.

On to “FZD5-Nluc (wild-type human Frizzled-5, C-terminally tagged with Nanoluciferase) (from UniProt Q13467) W3×43A”, for which, in experiment [1], the other: BRETmax came to 0.22 and the other: log BRET50 was determined as 2.6. Also, in experiment [2], the response stood at 108 % BRET.

As to “FZD5-Nluc (wild-type human Frizzled-5, C-terminally tagged with Nanoluciferase) (from UniProt Q13467) W6×61A”, in experiment [1], the other: BRETmax was determined as 0.14 and the other: log BRET50 was determined as 2.7. Moreover, in experiment [2], the response came out at 102 % BRET.

“FZD5-Nluc (wild-type human Frizzled-5, C-terminally tagged with Nanoluciferase) (from UniProt Q13467) W7×55A”: in experiment [1], the other: BRETmax came to 0.19 and the other: log BRET50 turned out to be 3.4. Further, the response in experiment [2] turned out to be 111 % BRET.

As for “FZD5-Nluc (wild-type human Frizzled-5, C-terminally tagged with Nanoluciferase) (from UniProt Q13467) W8×54A”, in experiment [1], the other: BRETmax was 0.19 and the other: log BRET50 was determined as 2.9. For the same substance, the response in experiment [2] worked out at 105 % BRET.

Take “FZD5-Nluc (wild-type human Frizzled-5, C-terminally tagged with Nanoluciferase) (from UniProt Q13467) Y2×39A”: in experiment [1], the other: BRETmax stood at 0.17 and the other: log BRET50 stood at 3.4. Also, in experiment [2], the response came out at 108 % BRET.

Take “FZD5-Nluc (wild-type human Frizzled-5, C-terminally tagged with Nanoluciferase) (from UniProt Q13467) Y2×51A”: in experiment [1], the other: BRETmax amounted to 0.15 and the other: log BRET50 is 2.7. The response in experiment [2] amounted to 101 % BRET.

On to “FZD5-Nluc (wild-type human Frizzled-5, C-terminally tagged with Nanoluciferase) (from UniProt Q13467) Y6×51A”, for which, in experiment [1], the other: BRETmax is 0.2 and the other: log BRET50 amounted to 2.5. The response in experiment [2] is 106 % BRET.

Take “FZD5-Nluc (wild-type human Frizzled-5, C-terminally tagged with Nanoluciferase) (from UniProt Q13467) Y6×53A”: in experiment [1], the other: BRETmax stood at 0.13 and the other: log BRET50 worked out at 3.1. The response in experiment [2] stood at 100 % BRET.
